Our source for the Kd and IC50 values is the Immune Epitope Database (IEDB).

One test deals with HLA-B*53:01. The test is described as follows: IEDB peptide-MHC binding, purified MHC/competitive/radioactivity; filed as Kd, often an IC50 or EC50 that approximates it; ≥ and ≤ were set here for values at or beyond the usual limits of such assays.
The target in another test is HLA-B*51:01. The test is described as above.
The target of the next test is HLA-B*35:01. Described as above.
For test [1], the target named is HLA-A*02:01. The test is described as follows: IEDB peptide-MHC binding, purified MHC/competitive/fluorescence; ≥ and ≤ were set here for values at or beyond the usual limits of such assays.
The target in another test is HLA-A*03:01. The test is described as follows: IEDB peptide-MHC binding, purified MHC/direct/fluorescence; filed as Kd, often an IC50 or EC50 that approximates it; ≥ and ≤ were set here for values at or beyond the usual limits of such assays.
The target of a further test is HLA-A*11:01. Described as above.
The target in another test is HLA-A*01:01. The description is as above.
Test [2] has as its target HLA-A*02:01. The test is described as above.
The target of test [3] is HLA-B*07:02. The test is described as follows: IEDB peptide-MHC binding, purified MHC/competitive/radioactivity; filed as Kd, often an IC50 or EC50 that approximates it; ≥ and ≤ were set here for values at or beyond the usual limits of such assays. Particulars: source organism: Dengue virus 3 Martinique/1243/1999.
Another test concerns the target HLA-A*69:01. The test is described as follows: IEDB peptide-MHC binding, purified MHC/direct/fluorescence; filed as Kd, often an IC50 or EC50 that approximates it; ≥ and ≤ were set here for values at or beyond the usual limits of such assays.
The target of another test is HLA-A*02:02. The test is described as follows: IEDB peptide-MHC binding, purified MHC/competitive/radioactivity; filed as Kd, often an IC50 or EC50 that approximates it; ≥ and ≤ were set here for values at or beyond the usual limits of such assays.
For the next test, the target named is HLA-A*02:06. The test is described as above.
A further test addresses HLA-A*02:03. The description is as above.
The target in test [4] is HLA-B*07:02. The test is described as follows: IEDB peptide-MHC binding, purified MHC/direct/fluorescence; filed as Kd, often an IC50 or EC50 that approximates it; ≥ and ≤ were set here for values at or beyond the usual limits of such assays. Particulars: source organism: Mycobacterium tuberculosis str. Haarlem.
[5] abbreviates: source organism: Dengue virus 1 Brazil/97-11/1997.
Where [6] appears, read: source organism: Dengue virus 3 Martinique/1243/1999.
Where [7] appears, read: source organism: Dengue virus 4 Philippines/H241/1956.
Where [8] appears, read: source organism: Francisella tularensis subsp. holarctica LVS.
Setting [9] is: source organism: Escherichia coli.
Where [10] appears, read: source organism: Brucella abortus 2308.
Where [11] appears, read: source organism: Entamoeba histolytica HM-1:IMSS.
Setting [12] is: source organism: Vaccinia virus WR.
The mark [13] stands for this setting: source organism: Vibrio vulnificus.
Where [14] appears, read: source organism: Mammarenavirus juninense.
[15] abbreviates: source organism: Lymphocytic choriomeningitis virus (strain Armstrong).

Where only a bound is given, the exact number is not on record here.

Consider LPVLLGSFGC, for which the Kd (usually the equilibrium constant for the complex coming apart) with HLA-B*53:01 (setting [5]) is 117 nM; with HLA-B*51:01 (setting [5]) it was at least 43500 nM; with HLA-B*35:01 (setting [5]) it was 5940 nM.
Turning to WTLDANINA, the IC50 (commonly the midpoint of a concentration-inhibition curve) in the test with HLA-A*02:01 [1] (source organism: Sudan ebolavirus) stood at 3.85 µM.
Consider FPYSIPATL, for which the dissociation constant Kd with HLA-B*53:01 (setting [6]) came to 2.15 nM; in the test with HLA-B*51:01 (setting [6]), 89 nM; in the test with HLA-B*35:01 (setting [6]), 1.99 nM.
In the test with HLA-A*02:01 [1] (source organism: Zaire ebolavirus), LEKVQRQIQ had an IC50 of at least 446 µM.
The sequence CIDILRSLE yielded an IC50 with HLA-A*02:01 [1] (source organism: Vaccinia virus) of 51 µM.
With WPLNEGVMAV, in the test with HLA-B*51:01 (setting [6]), the equilibrium dissociation constant (Kd) was 1670 nM.
On to CSDDGFWSK, for which the dissociation constant Kd in the test with HLA-A*03:01 (source organism: Homo sapiens) stood at 11000 nM; in the test with HLA-A*11:01 (source organism: Homo sapiens) it was 138 nM; with HLA-A*01:01 (source organism: Homo sapiens), 0.423 µM.
Regarding IPERSWNSGY, the dissociation constant Kd with HLA-B*35:01 (setting [5]) came to 155 nM.
In turn, LLFEVEQEI yielded a Kd with HLA-A*02:01 [2] (source organism: Influenza A virus (A/Saudi Arabia/7971/2000(H1N1))) of 15.7 nM.
VAEIQPQWI: the dissociation constant (Kd) in the test with HLA-B*51:01 (setting [7]) is at least 20900 nM.
In the test with HLA-A*03:01 (source organism: Mycobacterium tuberculosis variant bovis), GTHPTTTYK had a Kd of 780 nM.
Consider LATGPILTLW, for which the Kd in the test with HLA-B*53:01 (source organism: Dengue virus 4 Dominica/814669/1981) came out at 15.1 nM.
In the case of RIYCQENPY, the Kd was 91.7 nM with HLA-A*03:01 (setting [8]) and 26.3 nM with HLA-A*11:01 (setting [8]).
On to TPMLRHTIEN, for which the Kd in the test with HLA-B*07:02 [3] came out at 1020 nM.
On to ISEPMFHQG, for which the Kd with HLA-A*69:01 (setting [9]) was found to be 1690 nM; in the test with HLA-A*01:01 (setting [9]), 7.13 µM.
As for DLSLGNQEL, the Kd with HLA-A*69:01 (setting [10]) was at least 20000 nM; in the test with HLA-A*02:01 [2] (setting [10]) it was at least 10000 nM.
Take NISLPLYTV: the dissociation constant Kd with HLA-A*69:01 (setting [11]) was 8.5 nM; with HLA-A*02:01 [2] (setting [11]) it was 47.5 nM.
On to SPPETQKAEL, for which the Kd in the test with HLA-B*07:02 [3] was 28.4 nM.
Sequence DSLSSQMTS had a 50% inhibitory concentration (IC50) with HLA-A*02:01 [1] (source organism: Vaccinia virus Copenhagen) of at least 240 µM.
Turning to LPVWLSYKVA, in the test with HLA-B*35:01 (setting [5]), the Kd amounted to 864 nM.
Turning to IVNNFITKEI, the equilibrium dissociation constant (Kd) in the test with HLA-A*02:02 (setting [12]) was 1470 nM; with HLA-A*02:06 (setting [12]), 14.2 µM; with HLA-A*02:03 (setting [12]), 192 nM.
The matching figures for IIYSKAGNIL: 8.48 nM, 0.342 µM and 110 nM.
The matching figures for ETIEILRNYL: 474 nM, 0.000276 µM and 1410 nM.
In the case of VSIPITAAAW, in the test with HLA-B*53:01 (source organism: Dengue virus 2 Jamaica/1409/1983), the Kd was 402 nM.
For SAWESFWRI, the Kd in the test with HLA-A*69:01 (setting [13]) worked out at 1.4 nM; in the test with HLA-A*02:01 [2] (setting [13]) it was 12.8 nM.
As to LPTYLSSRAK, the values for the Kd in the test with HLA-B*51:01 (setting [7]) and in the test with HLA-B*35:01 (setting [7]) were at least 49800 nM and 15100 nM, respectively.
On to TLHFLTRGK, for which, in the test with HLA-A*03:01 (setting [14]), the Kd stood at 344 nM.
As to CPTQGEAVL, in the test with HLA-B*07:02 [3], the Kd is 53.7 nM.
Regarding DIRDKYMEL, the equilibrium dissociation constant (Kd) was at least 24300 nM with HLA-A*02:02 (setting [12]), 14.5 µM with HLA-A*02:06 (setting [12]) and 3860 nM with HLA-A*02:03 (setting [12]).
The like results for SADNHPKMI were, in that order, 8180 nM, at least 77.1 µM and at least 43500 nM.
With VPMAGPLVA, the Kd with HLA-B*07:02 [3] came to 56 nM.
As to GANGSTAEQL, the Kd with HLA-A*02:02 (setting [12]) is 7280 nM; with HLA-A*02:06 (setting [12]) it was at least 55.4 µM; with HLA-A*02:03 (setting [12]), at least 45300 nM.
In the test with HLA-B*07:02 [4], GPRQWRWPL yielded an equilibrium dissociation constant (Kd) of 14.2 nM.
Turning to LSAEELMSL, the results for the Kd with HLA-A*02:02 (setting [15]), with HLA-A*02:06 (setting [15]) and in the test with HLA-A*02:03 (setting [15]) were 64.5 nM, 0.0659 µM and 705 nM, respectively.
FLPKAAYAL displayed a Kd in the test with HLA-A*02:01 [2] (setting [14]) of 2.8 nM.
Regarding NITPDDGLGL, the results for the Kd in the test with HLA-A*02:02 (setting [12]), in the test with HLA-A*02:06 (setting [12]) and with HLA-A*02:03 (setting [12]) were 1910 nM, 3.45 µM and 1290 nM, respectively.
Regarding LIGLSSRATW, the Kd with HLA-B*53:01 (setting [7]) amounted to 378 nM.
